The data set is described as follows: soluble on expression in E. coli; label from the status in PepcDB or PDB records.
Consider “SLAVLGLGYAGLFKSQMESLEEYEAKETELKNTYKQKSIDAASLNNLRDELASIRSAFDIMLKQLPTDAEIPNLVQELHQAGSSNGLRLDSVMPQPPVDDGPIKRLPYSISITGNYEQISQFTRDVGSLSRIITLESLKIAQSPENGGNPDGKSSILNLSAIATTYQAKSVEELAAEAAQNAEQK”, for which the “soluble on expression in E. coli” value is given as “soluble”.

As for “MSVVLGENELVIRGCILYEVLNKKPIQESYENFCRNVGNDVMSYNDFDFWFYRFYNGNHDLHYDRSADPASPLLSNMPLNIIDEVLNRMEILNLLVLMKVSRNFRKVVQNMKMVFDCIEVDFDEHLAITYNSRHKIKYRPNDTAQYSPFRQEPTCTCGRRIRTSDEDNRKEFFVTDEDYIELGVKDLKLIMENQNVQLKKFQFSNGSNQDTQKKFIDRAEIAFKSAKSSTRTVEAHYNSLAEIAQLLPIFHAGKLEEINFKQGARTDGYEQLVGLEQWKNARKFDGFWSLNVPIEHCLHFECFKDHFVRFKEEDAMKLRYMLDRSTNFGYAEITIDPMNVSLLKRAFDVNNDNKFEFVYQSPDNGSFEVHCALRVLYITKSGYKFKYNNKSASTFYKPPPIPAPPALFLRDYQFFDPRPRMPTDRSRYRPF”, the “soluble on expression in E. coli” value is listed as “not soluble”.

Consider “MGSDKIHHHHHHMIYCDHCVMPNTRPGINFTKDKEGKNICSACINHKNKENIDYKARFKELEVLCDKYRRMNGKFEYDCAIAVSGGKDSHFQVHIMKEKLGMNPILFSVEDNFTMTEAGKKNLKNLSETFGCHIISLKPDIKTQKKVMLKTFEKYGKPTWFIDRLIYSYPFAMALKFNTPLLVYGENVSYEYGGSDTEETPSAKEIFLNGVASDLNINEFIDDEIKEENLQLFFNPNKDKLDKLNPIYLSYFVKWNSYSNYIFAKSRGFTDLEGEWDRTMCAENFDQVDSIGYILHAWMKYPKFGHACASDYAARFVRYGLLSRKEAIELVQKRDHKLDNKCVEDFCNFIGISKTTFWKIVEKHYNMDLFYKNDFGEFKLKNKLQ”, for which the “soluble on expression in E. coli” value was “not soluble”.

Take “MNLDQAEITALTKRFETPFYLYDGDFIEAHYRQLRSRTNPAIQFYLSLKANNNIHLAKLFRQWGLGVEVASAGELALARHAGFSAENIIFSGPGKKRSELEIAVQSGIYCIIAESVEELFYIEELAEKENKTARVAIRINPDKSFGSTAIKMGGVPRQFGMDESMLDAVMDAVRSLQFTKFIGIHVYTGTQNLNTDSIIESMKYTVDLGRNIYERYGIVCECINLGGGFGVPYFSHEKALDIGKITRTVSDYVQEARDTRFPQTTFIIESGRYLLAQAAVYVTEVLYRKASKGEVFVIVDGGMHHHAASTFRGRSMRSNYPMEYIPVREDSGRRELEKVTIAGPLCTPEDCLGKDVHVPALYPGDLVCVLNSGAYGLSFSPVHFLGHPTPIEILKRNGSYELIRRKGTADDIVATQLQTESNLLFVDK”: the “soluble on expression in E. coli” value is listed as “soluble”.

As for “MKKDNTVFNDLQASLKQAVAIRQGKMPPSRVFKVETVDVKATREKTHMSQTEFAKAIHVSVRTLQNWEQGHRNPTGPAVALLKIVASAPDIAVRALRTA”, the “soluble on expression in E. coli” value is “not soluble”.

With “EVLVTGYQTLSKERSTGAFSKVSTEKLELKRMDNLSSMLEGQVAGYVNGQIRGVTTMNAVANPMVVIDGFPVENTTLDRIGQTTENMPDLNPEDIESVTVLKDAAAASIYGARAANGVIVITTKKAK”, the “soluble on expression in E. coli” value is on record as “not soluble”.

Consider “MSLAVLAPRVASVGVHSIDHFALEVPDLSAAKVFFGAFGLAVDETIDGLELRASASDHVWARVLKGSRKQLAYLSLNCFGDDLAALTAQVETAGGKPCAAHAGAHDPEGFWFEDPDGNRLQIRTGDKTSPGLKKAAVAAKVRRGLRGAAARHEAPAVHPTRLSHVLLFTPDIERAIQFYRDALGLKFSDGSKGIVAFMHGRHGSDHHLVAFVQSSAKGWHHSAWDVPTVEEVGLGKMQMARAGFVDGWGVGRHVLGSNHFHYVRDPWGSFCEYSADIDFVPPGVEWPSADHPPEDSLYLWGPDVPAYFIENTEAQREGHHHHHH”, for which the “soluble on expression in E. coli” value was “soluble”.

For the sequence “MGSDKIHHHHHHMKLVKTGILPLDTQLGGGMPAGSVVSVFEEPGAGADVLSYHFTVEGATHGENVFYLATDDSSEEIREYINLYFDLDEAVWENITLLSLRASMQQEEGEKDAKDFLRKTIYDPIGGIKTILSHEEFERVVINNFTYFLANYPIEDVIALIDVLSNYAKRNQSVVMLLVTKGMFDPRTETTVKHYSDGVIELTLKEVENEVQRRLKVVKFKGILVPKAILRYELTDKGIKMESVMRVL”, the “soluble on expression in E. coli” value is listed as “not soluble”.

On to “MCQFIETIRIEDGQVYNLSYHTARMNRTRAAFWKEAAPIDLSGFISPPSLSGIWKCRIVYDKEIEEVGYTPYQMRMVSSLRPVASDTIDYSYKSTNREELNDLFARRGKADDILIVKDGYLTDTSIANIALYDGHTWYTPAHPLLQGTKRAELLDNRFIVEKDIRQAQLGDYSHIMLFNAMIDWKRLIIPVNEKYFIL”, for which the “soluble on expression in E. coli” value is listed as “not soluble”.

For “MAHHHHHHMDDGTRIPEDVEVFLRAARAKDTFKCAELLKETPSLINSVEAGGFSALHFAAFNGDLEMIRILLEFKPNLELRNYDNNTPLIMAAKGHQNSAIKLLVDAGAEVNLRTPTGGTAAHFAASMGYVDTVRCLVELGADVMHEDSETGTLLHWAAHSGDINCIGEMIYGFKIPINVKDAHGGTALFTALFMKKFEAVEFLLEHGADPRVMIEGDKSTPLHIAVEHANTECVKLLLVFGADPHVANTSGETPTSLAEKAKNNSALRELMKPMLSEEKRKEEAARFKTQGNKVFEGGENVKAAKFYTLAIHLDSTNHVFFSNRAAAYFNQRYYNGAYWDSLRCISLAPDWPKGYFRKAATELAMKKADEALQTCERGLRLDPKNKDLLTIKEEARRQRNK”, the “soluble on expression in E. coli” value is recorded as “soluble”.

Consider “MSLSTVISSEASNYDHWAWLYNHTLGPRYSEQKIAPLARAVLSQLPNGASVLDLCCGTGHLAKLMADRGYAVTGLDGSQDMINHARGNAPDLEFVLGDARDFTFEQPFDGVVCTSASLNHIQNTEDLRKVFSSVRRCLKDEGIFAFDINHPGQMARYWRDVPAEGELTDDYAWLITPRYNSQSNEGSFTVEIHTRPKAARFSLAEAAYRLAARLLSNRRRLALIARFGIPGNNWERHSVTNPVWGHDLDTVTELLRASGFSVKMRSTDGGPVTDERAVYFLCTKIAGDRAGQEVTKEAVEEGHHHHHH”, for which the “soluble on expression in E. coli” value is given as “soluble”.

As for “MADSSSFFSSAFSSAKNLIPFAKNTEDKPVDADTASDAKDAKDSAIQEAVQNASAAINDVFTDAVDKLEEVKDTVVEQFSNGDEKKEEAVVEEKFDSVHVGVDGETAVQEAKEEVKEAQVVVKGVLADGTQIVEGVTDVAEAPVADEKKEETVAAPLDSAAPVEEHKEESHSSEHTEAPAHTEDSIVQADPEARIVFQGVLADGTQIIEAVSANPPCIQEESAPAAAVSEEVGEAVHVVPVDQAPEAPTSEAQDAAPIEEHVEVVHVAENASTPAATDAHEETKSAEEQTPVVDASPAQEIVKVEEHEHKEEAAPDESAPEAAHDSHVEETAAQVVDEVIEAVHVSANESAPEEHKEEVAAAATSEDQKEPAPASDEHTSESAVEGAIESVHIALTESAPVASDENTTEAAPGTVEEHKNEVHDPVDGASSDAPAEDHREAAASSESVEEPITAVHVEATESAAPADKVHEETKIDSAAETHADAPVVDASPAEDQASEVTEAPHVESAKSAPATSEDHKEDVAQATSEQVETQAPADEHKDDASPAEPTTVQDVIEAIPIVSTESTPAEHSAPAESAPALAEEHKDEAAPSEPVQDVPVEEVIEAVHIAPAESAPASVEEAAPSESTQAPVEEHKDATTAADSSHEEPKAESDAPAAESVETAPVEEHKDEASPTALESVEDVIEAVHVASTESAPAPVEDAASADSTQAPVEEQKDTAAAAEPSHEEAQADHAASVEDVIEAVHIASNESAPTTEAAPSESIQAEDHKDEAASTAEPAHEESVTVVEASHKEPQAESAAPVEENIESVHVASEESAPAPSGDAAPSESAPVSENPVEEVAVAYHVESIESVPTDAQSVEEPVVQQHVGTVEAAPEAAVDEESFDVVHVHSDAAHPETATPESGSEETFEKVEHSQVQEAPSSEEHNSSEPEIVEDVVEKQIVAAVASAPETQPEESPKKPRKLAEMAHESAFPVPYRSKLVEPFEPGQTLIVKGKTGEDSIRFTVNLHTNTADFSGNDVPLHVSVRFDEGKLVFNTFSKGEWGKEERKSNPYKKGDDIDIRIRAHDSKFQIFVDQKEVKEYEHRVPLSSITHFTIDGDVLVNYIHWGGKYYPVPYESGLAGEGLAPGKTLTVFGIPEKKAKRFHINLLKKNGDIALHLNARFDEKHVVRNSLINSAWGNEEREGKMPFEKAVGFDLEIHNEPYAFAVTVNGERFASYAHRLSPDEVNGLQIGGDVEITGIQLA”, the “soluble on expression in E. coli” value is listed as “not soluble”.

Consider “MVSMLLVGRIGKSVGLNGGLRLHLESDFPECLKKGVKVSVAPLNAFSCVSSFKEYIIHSYEHAKNLLFLETIQTPEKAKELTNLGLFMSEAESKKLCVLKEGEFFYCDLVGLSVVEENEILGKVIEIQRISQTDYFLVETTLNLVEKGLAKIFLIPYRDFYIQEILLQDKKITTHNAKTLLENSLEHHHHHH”, for which the “soluble on expression in E. coli” value is “soluble”.

For the sequence “HHHHHHSSGLVPRGSHMSCEELEIVWNNIKAEARTLADCEPMLASFYHATLLKHENLGSALSYMLANKLSSPIMPAIAIREVVEEAYAADPEMIASAACDIQAVRTRDPAVDKYSTPLLYLKGFHALQAYRIGHWLWNQGRRALAIFLQNQVSVTFQVDIHPAAKIGRGIMLDHATGIVVGETAVIENDVSILQSVTLGGTGKSGGDRHPKIREGVMIGAGAKILGNIEVGRGAKIGAGSVVLQPVPPHTTAAGVPARIVGKPDSDKPSMDMDQHFNGINHTFEYGDGI”, the “soluble on expression in E. coli” value is reported as “soluble”.

For “MGSDKIHHHHHHMVDEILKLKKEKGYIILAHNYQIPELQDIADFVGDSLQLARKAMELSEKKILFLGVDFMAELVKILNPDKKVIVPDRSATCPMANRLTPEIIREYREKFPDAPVVLYVNSTSECKTLADVICTSANAVEVVKKLDSSVVIFGPDRNLGEYVAEKTGKKVITIPENGHCPVHQFNAESIDAVRKKYPDAKVIVHPECPKPVRDKADYVGSTGQMEKIPEKDPSRIFVIGTEIGMIHKLKKKFPDREFVPLEMAVCVNMKKNTLENTLHALQTESFEVILPKEVIEKAKKPILRMFELMG”, the “soluble on expression in E. coli” value is “not soluble”.

Turning to “MKIYIQPLSVNSHTVEVLANSLPKIFNAEVFVLPASDVSLKCYNASRRQYNSTCILRMLPPIKVTLGVTGKDIYAKGMNFVFGEAELGGARAVLSVFRLTTADSELYRERVVKEAVHEIGHVLGLKHCSNNCVMRFSNSVQDVDRKPVSFCRECASKIRYLEHHHHHH”, the “soluble on expression in E. coli” value is on record as “soluble”.

In the case of “MGSDKIHHHHHHMNRGCFDIAVITDREAFQAILDEWNQLADINGYYTPWFCWEWFDLCLRHGETRALHILMVRSGGSLVAVAPFTVRSERYKGVVPARILSSIGGNRSPLKGIVFGDADENMQREVTTLVLEYLRTTFKNWDILELEPVAGSNDGNSIETLIERQGLSFRSYISCANRYCDVADASFDGFFERLPQSTRKDINYCRRRLEKNGSLVFQIITDAASLDQCLDVYDAVRAKSWKAAEKDREFNRELMHVAAGKGWLRLGILSYDGTPIAVQKWIVANGRAYIYDVLYDEEYKKHSPGKILTSMMFQHAIDNERVAYVDYLRGDEPYKEEWTPSLRNRIGIEAYNKSVLGCTASILMKKILPLVKKNTDSTNAHK”, the “soluble on expression in E. coli” value is “not soluble”.

Regarding “MQEVHDYGAYLILDEYGGVRAFLPWSEIASRAVRNIHAVLKPRQKVVVKVIRVYKKRGQVDVSLKRVMDSEKKRKMMFYKRYLKAATLVELIAEKLGKSVDEAYREVLWKLEDAYGDPMKGLEAAVLQGREALEKAGVPEEWIEPLLETAKTHVRVKTVKITFYLTLRSMAGDGVERVRKVLEAAKSQIESFKDSKVVARIYTVGAPKYRVELQGYNYKTLEKALEKMVEAARKTASKLGVEFSFERED”, the “soluble on expression in E. coli” value is given as “soluble”.

Values taken from the DeepSol protein solubility set.
